Data from PMC2815101.

Tests used:
[1] = tested on: CC(=O)OCC1=C(C(=O)O)N2C(=O)[C@@H](NC(=O)Cc3cccs3)[C@H]2SC1; assay: Michaelis-Menten hydrolysis kinetics, purified enzyme; type: biochemical, Escherichia coli; details: active site (catalytic Ser64)
[2] = tested on: CO/N=C(\C(=O)N[C@@H]1C(=O)N2C(C(=O)O)=C(COC(C)=O)CS[C@H]12)c1csc(N)n1; assay: as above; type: biochemical, Escherichia coli; details: active site (catalytic Ser64)

| Substance | Km [1] [µM] | kcat [1] [s⁻¹] | Km [2] [µM] | kcat [2] [s⁻¹] |
| --- | --- | --- | --- | --- |
| AmpC β-lactamase (Escherichia coli K-12; E235K) | 24 | 84.6 | 77 | 6.9 |
| AmpC β-lactamase (Escherichia coli K-12; T86I) |  |  | 295 | 9.2 |
